Experimental data reported in patent US20100272712.

System: active JNK3 purified protein (Upstate)

Row | Protein | in vitro phosphatase assay (JNK3 phosphorylation by western blot) | in vitro phosphatase activity analysis (JNK3 phosphorylation by western blot) | in vitro phosphatase activity analysis after GSNO treatment of MKP7
1 | Flag-tagged MKP7-ΔC (A.A.1-317, retaining the catalytic domain) (enzyme, UniProt Q9BY84 1-317, looked up, species assumed, Flag tag) MAHEMIGTQIVTERLVALLESGTEKVLLIDSRPFVEYNTSHILEAININCSKLMKRRLQQDKVLITELIQHSAKHKVDIDCSQKVVVYDQSSQDVASLSSDCFLTVLLGKLEKSFNSVHLLAGGFAEFSRCFPGLCEGKSTLVPTCISQPCLPVANIGPTRILPNLYLGCQRDVLNKELMQQNGIGYVLNASNTCPKPDFIPESHFLRVPVNDSFCEKILPWLDKSVDFIEKAKASNGCVLVHCLAGISRSATIAIAYIMKRMDMSLDEAYRFVKEKRPTISPNFNFLGQLLDYEKKIKNQTGASGPKSKLKLLHLE | Both MKP7-WT and MKP7-ΔC possessed strong phosphatase activities as detected by the decreased phosphorylation of JNK3 |  | 
2 | Flag-tagged MKP7-ΔC (C244S) (enzyme, UniProt Q9BY84 1-317 with C244S, looked up, species assumed, Flag tag) MAHEMIGTQIVTERLVALLESGTEKVLLIDSRPFVEYNTSHILEAININCSKLMKRRLQQDKVLITELIQHSAKHKVDIDCSQKVVVYDQSSQDVASLSSDCFLTVLLGKLEKSFNSVHLLAGGFAEFSRCFPGLCEGKSTLVPTCISQPCLPVANIGPTRILPNLYLGCQRDVLNKELMQQNGIGYVLNASNTCPKPDFIPESHFLRVPVNDSFCEKILPWLDKSVDFIEKAKASNGCVLVHSLAGISRSATIAIAYIMKRMDMSLDEAYRFVKEKRPTISPNFNFLGQLLDYEKKIKNQTGASGPKSKLKLLHLE | the phosphatase activity of MKP7-ΔC (C^244S) was much lower than that of MKP7-WT or MKP7-ΔC protein, and the activity after GSNO treatment was essentially unchanged |  | 
3 | Myc-MKP7 (enzyme, UniProt Q9BY84 1-665, looked up, species assumed, full-length Myc tag) MAHEMIGTQIVTERLVALLESGTEKVLLIDSRPFVEYNTSHILEAININCSKLMKRRLQQDKVLITELIQHSAKHKVDIDCSQKVVVYDQSSQDVASLSSDCFLTVLLGKLEKSFNSVHLLAGGFAEFSRCFPGLCEGKSTLVPTCISQPCLPVANIGPTRILPNLYLGCQRDVLNKELMQQNGIGYVLNASNTCPKPDFIPESHFLRVPVNDSFCEKILPWLDKSVDFIEKAKASNGCVLVHCLAGISRSATIAIAYIMKRMDMSLDEAYRFVKEKRPTISPNFNFLGQLLDYEKKIKNQTGASGPKSKLKLLHLEKPNEPVPAVSEGGQKSETPLSPPCADSATSEAAGQRPVHPASVPSVPSVQPSLLEDSPLVQALSGLHLSADRLEDSNKLKRSFSLDIKSVSYSASMAASLHGFSSSEDALEYYKPSTTLDGTNKLCQFSPVQELSEQTPETSPDKEEASIPKKLQTARPSDSQSKRLHSVRTSSSGTAQRSLLSPLHRSGSVEDNYHTSFLFGLSTSQQHLTKSAGLGLKGWHSDILAPQTSTPSLTSSWYFATESSHFYSASAIYGGSASYSAYSCSQLPTCGDQVYSVRRRQKPSDRADSRRSWHEESPFEKQFKRRSCQMEFGESIMSENRSREELGKVGSQSSFSGSMEIIEVS |  | The ectopically-expressed MKP7 protein exhibited strong phosphatase activity as demonstrated by the decrease in JNK3 phosphorylation | nitrosylation of MKP7 by GSNO markedly inhibited MKP7 phosphatase activity
4 | Flag-tagged MKP7-WT (enzyme, UniProt Q9BY84 1-665, looked up, species assumed, full-length Flag tag) MAHEMIGTQIVTERLVALLESGTEKVLLIDSRPFVEYNTSHILEAININCSKLMKRRLQQDKVLITELIQHSAKHKVDIDCSQKVVVYDQSSQDVASLSSDCFLTVLLGKLEKSFNSVHLLAGGFAEFSRCFPGLCEGKSTLVPTCISQPCLPVANIGPTRILPNLYLGCQRDVLNKELMQQNGIGYVLNASNTCPKPDFIPESHFLRVPVNDSFCEKILPWLDKSVDFIEKAKASNGCVLVHCLAGISRSATIAIAYIMKRMDMSLDEAYRFVKEKRPTISPNFNFLGQLLDYEKKIKNQTGASGPKSKLKLLHLEKPNEPVPAVSEGGQKSETPLSPPCADSATSEAAGQRPVHPASVPSVPSVQPSLLEDSPLVQALSGLHLSADRLEDSNKLKRSFSLDIKSVSYSASMAASLHGFSSSEDALEYYKPSTTLDGTNKLCQFSPVQELSEQTPETSPDKEEASIPKKLQTARPSDSQSKRLHSVRTSSSGTAQRSLLSPLHRSGSVEDNYHTSFLFGLSTSQQHLTKSAGLGLKGWHSDILAPQTSTPSLTSSWYFATESSHFYSASAIYGGSASYSAYSCSQLPTCGDQVYSVRRRQKPSDRADSRRSWHEESPFEKQFKRRSCQMEFGESIMSENRSREELGKVGSQSSFSGSMEIIEVS | Both MKP7-WT and MKP7-ΔC possessed strong phosphatase activities as detected by the decreased phosphorylation of JNK3 |  | 
